Measured values taken from paper PMC7489914, “Structural and functional studies of Arabidopsis thaliana legumain beta reveal isoform specific mechanisms of activation and substrate recognition” (The Journal of Biological Chemistry, 2020).

Biological target: T1, AtLEGβ catalytic AEP domain (up to the autocatalytic cleavage site Asn333) (Arabidopsis thaliana, UniProt Q39044 22-333)
T1 construct: Arabidopsis thaliana legumain isoform β, catalytic (AEP) domain up to the autocatalytic cleavage site Asn333; Removal of the His6 tag (cleavage within the TEV site) was only observed under very acidic pH conditions; also called catalytic domain; AEPβ
T1 sequence (looked up): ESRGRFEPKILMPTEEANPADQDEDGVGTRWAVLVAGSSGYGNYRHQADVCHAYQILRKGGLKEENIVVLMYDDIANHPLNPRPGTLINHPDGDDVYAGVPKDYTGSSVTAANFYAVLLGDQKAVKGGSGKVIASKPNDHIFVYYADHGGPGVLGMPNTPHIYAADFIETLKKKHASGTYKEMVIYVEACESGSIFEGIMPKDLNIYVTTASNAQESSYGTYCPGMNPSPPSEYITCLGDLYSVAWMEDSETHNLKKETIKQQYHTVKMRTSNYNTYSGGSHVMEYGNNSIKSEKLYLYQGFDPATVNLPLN
Test: SEC; pH 5.0-activated AtLEGβ on an S200 column, 20 mM citric acid pH 5.0, 100 mM NaCl; BSA as size standard
Conditions: both partners purified

B1: AtLEGβ AP-LSAM C-terminal fragment (Gln346–Ala486) (domain or fragment, Arabidopsis thaliana, UniProt Q39044 346-486, looked up)
chain: QRDADLLFLWHMYRTSEDGSRKKDDTLKELTETTRHRKHLDASVELIATILFGPTMNVLNLVREPGLPLVDDWECLKSMVRVFEEHCGSLTQYGMKHMRAFANVCNNGVSKELMEEASTAACGGYSEARYTVHPSILGYSA
notes: also called LSAM domain
Does B1 bind?
Result: binds
